Measured values as given in US20040253709A1.

Biological target: human IgE (human) (UniProt P01854)
Test: Western blots of His tag IPSE incubated with human IgE (100-100,000 ng/ml), compared with IgG; called competitive inhibition experiments in paragraph 33

recombinant His tag IPSE fusion protein
fold higher affinity than to IgG: 100 times
